A short description of the data set: yeast display, Sf9 membrane polyspecificity reagent, FACS + sequencing; frameworks hold sequencing errors. In outline:
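Galactose induction of a Saccharomyces cerevisiae BJ5465 synthetic nanobody display library ran 36–48 hours. The cells were then stained for 1 hour at 4 °C with 10% biotinylated, detergent-solubilized Sf9 membrane reagent, pulled down on streptavidin microbeads and FACS-sorted into low and high (top ~1%) gates on expression and reagent-binding fluorescence. Labels for polyreactivity follow the gate of origin.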
Consider “QVQLVESGGGLVQAGGSLRLSCAASGLIFRVYAMGWYRQAPGKERELVAAISISDGTTNYADSVKGRFTISRDNAKNTVYLQMNSLKPEDTAVYYCAADYDFYDFSYQSWSEENYWGQGTQVTVSS”, for which the “polyreactivity (PSR sort gate)” value is reported as “low polyreactivity”.
In the case of “QVHLEESGGGLVQAGGSLRLSCAASGSIFGDNAKGWYRQAPGKERELVAAISSSGGSTYADSVKGRFTISRDNAKNTVYLQMNSLKPEDTAVYYCATQIAWCTYVINPQMDFWGQGTLVTVSS” it was “low polyreactivity”.
Then “QVLLVESGGGLVQAGGSLRLSSAASGSTYRNAMGWYRQAPGKERELVAAISSSGGRTYYADSVKGRFTISRDNAKNTVYLQMNSLKPDDTAVYYCAAPRFAAPSRIGYDWGQGTQVTVSS”, with “high polyreactivity”.
In the case of “QVQRVESGGGLVQAGGRLLLSCAASGSIFPPNAMGWYREAPGKERELVAAISGSGRTYYADSVKGRFTISRDNAKNTVYLQMNSLKPEDTAVYYCAARQQRRPTTRDFGFWGQGTQVTVSS” it was “high polyreactivity”.
“QVQLVESGGGLVQAGGSLRLSCAASGSIFALYAMGWYRQAAGKERELVAAITKGGGSTYYADSVKGRFTISRDNAKNTVYLQMNSLKPEDTAVYYCAARGRYSAPDYGYWGQGTQVTVSS”: the “polyreactivity (PSR sort gate)” value is reported as “high polyreactivity”.
Turning to “QVQLVESGGGLVQAGGSLRLSCAASGFIIYFNAMGWYRQAPGKERELVAAISASGGRTYYADSVKGRFTISRDNAKNTVYLQMNSLKPEDTAVYYCAADIRGYDYWGQGTQVTVSS”, the “polyreactivity (PSR sort gate)” value is recorded as “high polyreactivity”.
Take “QVQLVESGGGLVQAGGSLRLSCAASGSTFSLNAMGWYRQAPGKERELVAAISNVGDTYYADSVKGRFTISRDNAKNTVYLQMNSLKPEDTAVYYCAADGASYYYEYDYWGQGTQVTVSS”: the “polyreactivity (PSR sort gate)” value is reported as “low polyreactivity”.
Then “QDQLVESGGGLVQAGGSLSLSCAASGRTFYDYAMGWYRQAPGKERELVAAISRSGGRTYYADSVKGRFTISRDNAKNTVYLQMNSLKPEDTAVYYCNAVRYVLGYSYDYNYWGQGTQVTVSS”, with “high polyreactivity”; and “QVQLVESGGGLVQAGGSLRLSCAASGYILGVYAMGWYRQAPGKERELVASISRSGGSTYYADSVKGRFTISRDNAKNTVYLQMNSLKPEDTAVYYCATRSRTAHFRLRYDYWGQGTQVTVSS”, with “low polyreactivity”; and “QVQLVESGGRLVQAGGSLRLSCAASGSIFTVYAMGCYRQAPGKERELVAAIRRTGSRTYYADSVKGRFTNSRDNAKNTVYLQMNSLKPEDTAVYYCAADVWFDRRSVRLNYWGQGTQVTVSS”, with “high polyreactivity”.
Then “QVQLVESGGGLVQAGGSLRLSCAASGLTFEYYTMGWYRQAPGKERELVAAITSSGGSTYYADSVKGRFTISRDNAKNTVYLQMNSLKPEDTAVYYCAADYYTWYGILYDYWGQGTQVTVSS”, with “low polyreactivity”.
Then “QVQLVESGGGLVQAGGSLRITCAASGSTYYHNVMGRYRPAPGKERELVARISSGGGSTSYADSVKGRFTISRDNAKNTVYLQMNSLKPEETAVYYCNKYYTKRGYFLPWYHYGSWGQGTQVTLSS”, with “high polyreactivity”.
Take “QVQLVESGGGLVQAGGSLRLSCAASGRIFGVYAMGWYRQAPGKERELVAAISEGGGSTNYADSVKGRFTISRDNAKNTVYLQMNSLKPEDTAGYYCAATYRTGVRRYYSWGQGTQVTVSS”: the “polyreactivity (PSR sort gate)” value was “low polyreactivity”.
Then “QVQLVESGGGLVQAGGSLRLSCAASGSTSSPNAMGWNTQAPGKEREFVAAISRSGGSTYYADSVKGRFTISRDNAKNTVYLQMNSLKPEDSAVYYCAATVTVFYTRYYYWGQGTHVTVSS”, with “high polyreactivity”; and “QVQLVESAGGLVQAGGSLRLSCAASGSIFILNAMGWYRQAPGKERELVAAISWSGGRTNYADSVKGRFTISRDNAKNTVYLHMNRLKPEDTAVYSCAARVTPYRGFYYWGQGTQVTVSS”, with “high polyreactivity”.
In the case of “QDQHVESGGGLVQAGGSLRLSCAASGLTFHRYAMGWSRQAPGKERELVAAINYSGGRTYYADSVKGRFTISRDNAKNTVYLLMNSLKPEDTAVYYCAGYDYWGQGTQVTVSS” it was “high polyreactivity”.
In the case of “QVQLVESGGGLVQAGGSLRLSCAAMGWYRQAPGKERELVATLTWSGGSTYYADSVKGRFTISRDNAKNPVYLQMNRLKPEDTAVYYCNARATLLSPANTIRGYDYWGQGTQVTVSS” it was “low polyreactivity”.
Turning to “QVQLVESGGGLVQAGGSLRLSCAASGSTFKIYAMGWYRQAPGKERELVARITGRGGSTYYADSVKGRFTISRDNAKNTVYLQMNSLKPEDTAVYYCAARVYTFYYDLHKRYYWGQGTQVNVSS”, the “polyreactivity (PSR sort gate)” value is “high polyreactivity”.
Then “QVQLVESGGGLVQAGGSLRLSCAASGFTFGSYAMGWYRQAPGKERELVAVITRSGRTNYADSVKGRFTISRDTAKNTVYLQMNSLKPEDTAVYYCNADDVDDEVSPELTEMDYWGQGTQVTVSS”, with “low polyreactivity”; and “QVQLVESGGGLVQAGGSLRLSCAASGFTFYSNAMGWYRQAPGKERELVARITKRGGSTYYADSVKGRFTISRDNAKNTVYLQMNSLKPEDTAVYYCAADDGSDAEYYYWGQGTQVTVSS”, with “high polyreactivity”; and “QVQLVESGGGLVQAGGSLRLSCAASGLTFYKYAMGWYRQAPGKERELVAAITSTGGSTYYADSVKGRFTISRDNAKNTVYLQMNSLKPEDTAVYYCAAQWYTALYYWGQGTQVTVSS”, with “high polyreactivity”.
For the sequence “QVQLVESGGGLVQAGGSLRLSCAASGFIFYDYAMGWYRQGPGKERELGAAISSTAFGTYYADSVKGRFTISRDKAKNTVYLQMNILKPEDTAVYYCAAAVSPHSEGFGEYNDWGQGTQVTVSS”, the “polyreactivity (PSR sort gate)” value was “low polyreactivity”.
Then “QVQLVESGGGLVQAGGSLRLSCAASGFTFDIYAMGWYRQAPGKERELVADITSGGSTDYADSVKGRFTISRDNAKNTVYVQMNSLKPEDTAVYYSNAAVFYDPEWQYDYWGQGTQVTVSS”, with “low polyreactivity”.
For the sequence “QVQLVESGGGLVQAGGSLRLSCAASGSTSIEYGMGWYRQAPGKERELVATISIGSSTNYADSVKGRFTISRDNAKNTVYLQMNSLKPEDTAVYYCAADAYLDYYTGYYYQEYDSWGQGTQVTVSS”, the “polyreactivity (PSR sort gate)” value is listed as “low polyreactivity”.
Then “QGQLVESGAGLVQAGGSLRLSCAASGITLHGYVMGWYRQAPGKETELVAAITSSGGRTYYADSVKGRFTISRDNAKNTVYLQMNRLKPVDTAVYYCAARIYYYAFSGYYWGQGTQVTVSS”, with “high polyreactivity”; and “QVQLVESGGGLVQAGGSLRLSCAASGSIFWLYAMGWYRQAPGKESELVAAIDSGDSTKYADSVKGRFTISRDNAKNTVYLQMNSLKPEDTAVYYCNASRRYHVRAPYDYWGQGTQVTVSS”, with “low polyreactivity”.
Turning to “QVQLVESGGGLVQAGGSLRLSCAASGITFSTYAMGWYRQAPGKERELVAAINWSGGSTRYADSVKGRFTISRDNAKNTVYLQMNSLKPEDTAVYYCAAEVQGQVGEFDYWGQGTQVTVSS”, the “polyreactivity (PSR sort gate)” value is reported as “low polyreactivity”.
Then “QVQLVESGVGLVQAGGSLRLICAASGRTFYWYAMGWYRQAPRKERELVATITRGGRTYYADSVKGRFTISRDNAKNTVYLQMNSLKPEDTAVYDCATVSIAGPRYDYWGQGTQVTVSS”, with “high polyreactivity”; and “QVQLVESGGGLVQAGGSLRLSCAASGSIFVPYAMGWYIQAPGKERELVAAISSRGGSTYYADSVKGRFTISRDNAKNTVYLQMNSLKPEDTAVYYCNTDISRNYYWALYGYWGQGTQVTVSS”, with “low polyreactivity”; and “QVQLVESGGGLVQAGGSLRLSCAASGSIFSAYAMGWSRQAPGKERELVASITTDGGITYYADSVKGRFTISRDNAKNTVYLQMNSLKPEDTAVYYCAVLQYYYPYYYWGQGTQVTVSS”, with “low polyreactivity”.
In the case of “QVQLVESGGGLVQAGGRLRLSCAASGSTFPYNAMGCYRQAPGKERELVAAITSTGDSTYYADSVKGRFTISRDKAKNTVYLQMNSLKPEDTAVYYCAARSYASPGWRYEYWGQGTQVTVSS” it was “low polyreactivity”; in that of “QVQLVESGGGLVQAGGSLRLSCAASGSTIGFYTMGWYRQAPGKERELVATISYSGGDTYYADSVKGRFTISRDNAKNTVYLQMNSLKPEDTAVYYCAADLGDYVTTYSWLDSWGQGTQVTVSS”, “low polyreactivity”; in that of “QVQLEESGGGLVQAGGTLRLSCAASGRIFGWYAMGWYRQPPGKERELVAAISSGGRTNYADSVKGRFTISRDNAKNTVYLQMNSLKPEDTAVYYCNARSTYLPYKFGYDYWGQGTQVTVSS”, “low polyreactivity”.
Consider “QVQLVESGGGLVQAGGSLRLSCAASGSTLGQYAMGWYRQAPGKERELVAASRRGVRTYYADSVKGRFTISRDNAKNTVYFQMNSLKPEDTAVFYCAARRDVSRPVVGTMGYWGQGSQVTVSS”, for which the “polyreactivity (PSR sort gate)” value is reported as “high polyreactivity”.
In the case of “QVQLVESGGGLVQAGGSLRLSCAASGITFRYYTMGWYRQAPGKERELVAAISSSGGSTYYADSVKGRFTISRDNAKNTVYLQMNSLKPEDTAVYYCAAESKYATSSPRRDYWGQGTQVTVSS” it was “high polyreactivity”; in that of “QVQLVESGGGLVQAGGSLRLSCAASVGIYSQNVRGWYRQAPGKEWELVAAISRRGGRTYYADSVKGRFKISRDNAKNTVYLQMNSLKPEDTAVYYCATLSPERRVYYTYSGLFEYWGQGTQVTVSS”, “high polyreactivity”; in that of “QVQLQESGRRPGAAGGSPRMSCAASGNIFCVAVMGRYRQAPGKERELVASIGFGCTTYYADSVKCRFTISRDNAKNTVYLQMFSLKPEDTAVYYCAAPHYDWGELDYWGQGTQVPVSS”, “low polyreactivity”.
In the case of “QVQHVESGRGLVQAGGSLRLSCAASGLTFSRYAMGWYRQAPGKERELVAAITRSGGSTYYADSVKGRFTISRDNEKNTVYLQMKSLKPEDSAVYYCARTFTDRYGHWYGYWGQGTQVTVSS” it was “high polyreactivity”; in that of “QVQLVESGGGLVQAGGSLRLSCAASGSIFRLNTMGWYRQAPGKERELVAAITRSGSTNYADSVKGRFTISRDNAMNTVYLQMNSLKPEDTAVYYCAARYPREAAYGFEYWGQGTQVTVSS”, “high polyreactivity”; in that of “QFQLVESVGGLVQAGGILRLSCAASGRNYNSYAMGWYRKAPGKERELVAAISRTGASTYYSDSVKGRFTISRDNAKNTVYLQMNSLKPEDTAVYYCAADANSGDGYYWGQGTQVTVSS”, “high polyreactivity”.
In the case of “QVQLVESGGGLVQAGGSLRLSCAASGFTFVKNAMGWYRQAPGKERELVAAITGSAGRTYYADSVKGRFTISRANAKNTVYLQMNSLKPEDTAVYYCNVYYGYFRSRYGYWGQGTQVTVSS” it was “high polyreactivity”.

Values taken from the nanobody polyreactivity screen of Harvey et al. (2022).
